In general, Ki refers to the dissociation constant of the complex between target and ligand, obtained from inhibition or displacement.

Non-standard residues stand in square brackets, D forms with d. *: point of attachment. 2Nal = N[C@@H](Cc1ccc2ccccc2c1)C(=O)O; Chg = N[C@H](C(=O)O)C1CCCCC1; Tos = Cc1ccc(S(=O)(=O)*)cc1

34 substances from patent US6759384 can be followed below.

For one assay, the target named is human factor Xa (Enzyme Research Laboratories, Inc.) (human) (UniProt P00742). Nature of the assay: cell-based or functional assay.
Sequence of human factor Xa (Enzyme Research Laboratories, Inc.) (human) (P00742 41-179 limits assumed, chain 1 of 2): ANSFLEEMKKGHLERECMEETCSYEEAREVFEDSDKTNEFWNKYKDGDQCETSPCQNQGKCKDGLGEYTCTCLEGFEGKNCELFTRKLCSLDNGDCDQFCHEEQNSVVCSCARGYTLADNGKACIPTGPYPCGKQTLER
Sequence of human factor Xa (Enzyme Research Laboratories, Inc.) (human) (P00742 235-488 limits assumed, chain 2 of 2): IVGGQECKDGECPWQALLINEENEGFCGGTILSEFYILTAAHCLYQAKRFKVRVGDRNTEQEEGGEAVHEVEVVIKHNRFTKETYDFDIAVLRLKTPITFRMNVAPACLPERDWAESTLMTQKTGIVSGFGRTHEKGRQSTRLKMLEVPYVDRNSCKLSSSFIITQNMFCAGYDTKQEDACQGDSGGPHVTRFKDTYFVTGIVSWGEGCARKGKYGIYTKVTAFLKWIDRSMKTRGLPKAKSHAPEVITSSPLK
Substance Ac-Y-Chg-R-NH2 (peptide) showed an EC50 (concentration giving 50% inhibition of coagulation), in vitro dilute prothrombin time assay, pooled human plasma of 0.0025 µM.
For the substance Ac-[2Nal][Chg]RLP-NH2, the EC50 (concentration giving 50% inhibition of coagulation), in vitro dilute prothrombin time assay, pooled human plasma turned out to be 0.14 µM.

Another assay has the same target. As to the kind of experiment: chromogenic FXa inhibition.
Substance Ac-Y-Chg-R-NH2 (peptide) had a Ki of less than 100 µM.
Still for that read-out and setting: for Ac-[2Nal][Chg]RLP-NH2 the value was less than 100 µM.
In the case of Ac-(iBu)Y-Chg-R-NH2 (peptide), the Ki is less than 100 µM.
In turn, “Ac-Nal(2)-Cha-R-D(O-Allyl)-NH2 (peptide)” gave an inhibition constant (Ki) of less than 100 µM.
(iBu)Y-I-R-OH (peptide) registered a Ki of less than 100 µM.
As to Ac-Y-Chg-R-NH-CH2CH2-N(CH3)4 (peptide), the Ki is less than 100 µM.
The substance Ac-Y-I-R-Nle-Hyp (peptide) yielded a Ki of less than 100 µM.
The substance Ac-Y-I-R-NH2 (peptide) returned a Ki of less than 100 µM.
On the same count and under the same terms, the figure for Nal(2)-Cha-R-D(O-Allyl)-NH2 (peptide) is less than 100 µM; for “Ac-pAph-Chg-NH-1-[3(N-methylpyridyl)]-1-(methylacetate)ethyl (peptide)” it is less than 100 µM; for Ac-mAph-Chg-Arg-Leu-Pro-NH2 (peptide) it is less than 100 µM.
The substance Ac-Y-I-R-NH-CH2CH2-N(CH3)2 (peptide) had a Ki of less than 100 µM.
The same measure, in the same setting: the figure for Tfa-(iBu)F(pNH2)-Chg-R-NH2 (peptide) is less than 100 µM; for Tfa-(iBu)Nal(2)-Chg-R-L-P-NH2 (peptide) it is less than 100 µM; for Tos-Tyr-Ile-Arg-NH2 it is less than 100 µM.
Ac-Pgl(OH)-I-R-L-NH2 (peptide) came in with a Ki of less than 100 µM.
In turn, pal-I-R-C(SBut)-Hyp-NH2 (peptide) returned an inhibition constant Ki of less than 100 µM.
On the same count and under the same terms, for Ac-(iBu-Nal(2)-Chg-R-L-P-NH2 (peptide) the value was less than 100 µM; for “Ac-pAph-Chg-Arg-Pen(CH2COOH)-Pro-NH2 (peptide)”, less than 100 µM.
In turn, “(Alloc)-pAph-Chg-Arg-Leu-Pro-NH2 (peptide)” came in with a Ki of less than 100 µM.
As for “(5-pyrazinoyl)Nal(2)-Chg-Arg-Leu-Pro-NH2 (peptide)”, the Ki was less than 100 µM.
In the case of “Ac-Y-Chg-R-NH-CH2(2-(1-Et)pyrrolidinyl) (peptide)”, the Ki was less than 100 µM.
“Ac-Pal(4)Me-Chg-Arg-Leu-Pro-NH2 (peptide)” registered a Ki of less than 100 µM.
Same read-out and setting: for Ac-Y-I-R-NH-OCH3 (peptide) the value was less than 100 µM.
As for “Alloc-D-pAph-Chg-Arg-Leu-Pro-NH2 (peptide)”, the Ki is less than 100 µM.
Consider “Ac-pAph-Chg-NH-(4-amidinobenzyl) (peptide)”, for which the Ki is less than 100 µM.
On the same count and under the same terms, the figure for “(2-benzofuroyl)-Tyr-Chg-Arg-Pen-Pro-NH2 (peptide)” is less than 100 µM.
For Ac-pAph-Chg-R-L-P-NH2 (peptide), the Ki was less than 100 µM.
Same read-out and setting: the figure for pAph-Chg-Arg-Leu-Pro-NH2 (peptide) is less than 100 µM; for “Ac-(Bzl)G-(Chx)Gly-(3-GuanidoPropyl)G-NH2 (peptide)” it is less than 100 µM; for “Ac-pAph-Chg-Dap(CH═N(CH3)2)-Leu-Pro-NH2 (peptide)” it is less than 100 µM.
The substance Y-I-R-NH2 (peptide) displayed a Ki of less than 100 µM.
“Ac-Pal(4)Me-Chg-PalMe(3)-Leu-Pro-NH2 (peptide)” came in with a Ki of less than 100 µM.

The target is the same in the next assay. As to the kind of experiment: chromogenic enzyme inhibition, IC50 corrected for substrate.
Substance “TENSTOP (N-alpha-tosyl-Gly-p-amidinophenylalanine methyl ester)” returned an inhibitory constant (Ki) of 2 µM.

Another assay concerns the target human thrombin (Enzyme Research Laboratories, Inc.) (human) (UniProt P00734). The description is as above.
Substance “TENSTOP (N-alpha-tosyl-Gly-p-amidinophenylalanine methyl ester)” came in with a Ki of 2 µM.
